doi:10.1101/2025.06.05.657996

What was measured:
[1] = target: MHV68 gL-gH fusion protein (gL-Linker-gH-Linker-His6) (murine gammaherpesvirus 68 (MHV68)); experiment: ELISA; MHV68 gL-gH fusion protein coated at 2.5 μg/ml in PBS on Maxisorp plates; dimeric soluble murine Eph-Fc proteins 2 h at room temperature in 1% BSA in PBS; detected with ProteinG-HRP; four-parameter dose-response fit
[2] = target: MHV68 gL-gH fusion protein (gL-Linker-gH-Linker-His6) (murine gammaherpesvirus 68 (MHV68))

recombinant soluble murine EphA4-Fc (from UniProt Q03137 20-547) (Fc fusion)
EC50 [1]: 3.6 nM
reduction of MHV68 ORF59-GFP infection of the murine endothelial cell line SVEC4-10 after pre-incubation of virions with 100 nM homodimerized mEphA4-Fc [2]: 25%

B1: recombinant soluble murine EphB3-Fc (Fc fusion)
chain: LEETLMDTKWVTSELAWTSHPESGWEEVSGYDEAMNPIRTYQVCNVRESSQNNWLRTGFIWRREVQRVYVELKFTVRDCNSIPNIPGSCKETFNLFYYEADSDVASASSPFWMENPYVKVDTIAPDESFSRLDAGRVNTKVRSFGPLSKAGFYLAFQDQGACMSLISVRAFYKKCASTTAGFALFPETLTGAEPTSLVIAPGTCIANAVEVSVPLKLYCNGDGEWMVPVGACTCATGHEPAAKESQCRACPPGSYKAKQGEGPCLPCPPNSRTTSPAASICTCHNNFYRADSDSADSACTTVPSPPRGVISNVNETSLILEWSEPRDLGGRDDLLYNVICKKCRGSSGAGGPATCSRCDDNVEFVPRQLGLTERRVHISHLLAHTRYTFEVQAVNGVSGKSPLPPRYAAVNITTNQAAPSEVPTLHLHSSSGSSLTLSWAPPERPNGVILDYEMKYFEKSKGIASTVTSQKNSVQLDGLQPDARYVVQVRARTVAGYGQYSHPAEFETTSERGSGAQQLQEQLPL
EC50 [1]: 2.3 nM
inhibition of MHV68 ORF59-GFP infection of human fibroblasts (HFF) and endothelial cells (TIME) after pre-incubation of virions with 100 nM homodimerized mEphB3-Fc [2]: 30%
reduction of MHV68 ORF59-GFP infection of NIH 3T3 murine fibroblasts after pre-incubation of virions with a concentration series of soluble mEphB3-Fc, up to 100 nM homodimerized protein [2]: 40%
